Key:
[1] = target: head domain of measles virus hemagglutinin, Edmonston vaccine strain (measles virus, Edmonston strain) (UniProt P08362); test: SPR
[2] = target: head domain of measles virus hemagglutinin, IC-B wild-type strain (measles virus, IC-B strain) (UniProt Q786F2); test: SPR
Sequence of UniProt Q786F2 (Q786F2 149-617): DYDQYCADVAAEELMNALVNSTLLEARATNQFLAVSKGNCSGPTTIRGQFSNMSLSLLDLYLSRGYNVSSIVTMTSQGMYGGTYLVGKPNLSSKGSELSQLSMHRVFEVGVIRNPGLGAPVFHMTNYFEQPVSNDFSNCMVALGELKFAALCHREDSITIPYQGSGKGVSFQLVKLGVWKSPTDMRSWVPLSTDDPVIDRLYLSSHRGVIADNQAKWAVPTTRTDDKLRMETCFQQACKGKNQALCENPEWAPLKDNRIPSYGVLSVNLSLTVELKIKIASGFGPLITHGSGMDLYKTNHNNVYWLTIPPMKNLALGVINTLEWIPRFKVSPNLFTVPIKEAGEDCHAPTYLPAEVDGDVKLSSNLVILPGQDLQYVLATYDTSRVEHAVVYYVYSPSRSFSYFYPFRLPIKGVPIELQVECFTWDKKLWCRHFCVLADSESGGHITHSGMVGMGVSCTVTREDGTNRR

Sequence of UniProt P08362 (P08362 149-617): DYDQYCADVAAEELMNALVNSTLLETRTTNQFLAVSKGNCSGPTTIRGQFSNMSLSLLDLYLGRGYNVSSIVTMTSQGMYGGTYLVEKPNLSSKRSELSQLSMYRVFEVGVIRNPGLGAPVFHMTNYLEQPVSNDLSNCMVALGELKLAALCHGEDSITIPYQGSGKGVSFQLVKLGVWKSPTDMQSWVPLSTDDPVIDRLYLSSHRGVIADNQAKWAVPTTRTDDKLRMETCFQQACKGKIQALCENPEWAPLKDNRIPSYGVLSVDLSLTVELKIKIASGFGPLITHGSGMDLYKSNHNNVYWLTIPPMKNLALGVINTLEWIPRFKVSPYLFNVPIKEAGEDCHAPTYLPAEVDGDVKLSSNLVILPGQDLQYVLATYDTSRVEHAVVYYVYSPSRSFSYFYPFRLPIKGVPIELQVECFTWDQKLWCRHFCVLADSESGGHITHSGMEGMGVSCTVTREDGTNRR

With “soluble human SLAM, chimeric protein of a human V-set with a mouse C2 domain (domain or fragment)” the Kd [1] was 60.8 nM, the koff [1] was 0.00291 s⁻¹ and the kon [1] was 47900 M⁻¹ s⁻¹. For the same substance, the Kd [2] was 448 nM, the koff [2] was 0.00637 s⁻¹ and the kon [2] was 14100 M⁻¹ s⁻¹.
